Assay results published in patent US20240101668A1 (WUGEN, published 2024).

T1: huCLL1-K244-Avi-Tev-His (human, UniProt Q5QGZ9 65-265)
T1 construct: extracellular domain
T1 sequence (looked up): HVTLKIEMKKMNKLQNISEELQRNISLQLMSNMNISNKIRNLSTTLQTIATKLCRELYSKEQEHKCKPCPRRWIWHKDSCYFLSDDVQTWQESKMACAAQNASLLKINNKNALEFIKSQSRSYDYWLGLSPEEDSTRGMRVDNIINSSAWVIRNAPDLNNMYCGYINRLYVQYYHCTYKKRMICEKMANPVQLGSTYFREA

T2: huCLL1-Q244-Avi-Tev-His (human, UniProt Q5QGZ9 65-265)
T2 construct: extracellular domain; also called CLL-1 K244Q
T2 sequence (looked up): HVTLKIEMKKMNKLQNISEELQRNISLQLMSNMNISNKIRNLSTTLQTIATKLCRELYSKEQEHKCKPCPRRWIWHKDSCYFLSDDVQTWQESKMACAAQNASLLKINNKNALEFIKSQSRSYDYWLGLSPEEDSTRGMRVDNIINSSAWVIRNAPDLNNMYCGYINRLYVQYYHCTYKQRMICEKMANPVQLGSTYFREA


Tests used:
[1] = target: T1, huCLL1-K244-Avi-Tev-His; assay: BLI
[2] = target: T2, huCLL1-Q244-Avi-Tev-His; assay: BLI
[3] = target: T3, huCD33-R69 stably expressed on Jurkat cells (human, UniProt P20138 18-364); assay: FACS on cells;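 note: fixed Jurkat lines probed with myc-tagged scFv periplasmic extracts, anti-myc PE flow cytometry, PE MFI fold binned − <2, + 2–10, ++ 10–30, +++ >30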
T3 construct: whole, on cells; >200,000 receptors per cell; also called CD33 WT; CD33^ARG69
Method: (§1) Jurkat cells were engineered to stably express either the huCD33-R69 or huCD33-G69 variant at >200,000 receptors per cell. Parental, huCD33-R69, and huCD33-G69 Jurkat cell lines were stained with differing levels of CellTrace Violet Cell Proliferation Kit (ThermoFisher, cat. #C34557) to barcode each cell line. Barcoded Jurkat cell lines were fixed with paraformaldehyde and incubated with myc-labeled scFv periplasmic extracts and a secondary anti-myc PE-conjugated monoclonal antibody. Appropriate positive and negative controls were used. Stained cells were analyzed by flow cytometry (CytoFLEX, Beckman Coulter, Inc.) and binding was assessed by change in PE mean fluorescence intensity (MFI) of the barcoded cell populations.
(§2) Data is disclosed below in Table 16c, reporting FACS fold change over parental as (−), indicating <2 fold; (+), indicating 2-10 fold; (++), indicating 10-30 fold; and (+++), indicating >30 fold.

[4] = target: T4, huCD33-G69 stably expressed on Jurkat cells (human, UniProt P20138 18-364); assay: FACS on cells;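 note: fixed Jurkat lines probed with myc-tagged scFv periplasmic extracts, anti-myc PE flow cytometry, PE MFI fold binned − <2, + 2–10, ++ 10–30, +++ >30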
T4 construct: whole, on cells; >200,000 receptors per cell; also called CD33 Mutant; CD33 R69G
Method: as §1, §2

[5] = target: T5, huCD33-G69-Fc recombinant protein (human, UniProt P20138 18-259); assay: BLI;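 note: biolayer interferometry: scFvs captured from periplasmic extracts on anti-V5-loaded streptavidin biosensors, antigen association for 2 min, buffer dissociation for 5 min, 1:1 Langmuir fit giving off-rate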
T5 construct: extracellular domain; also called CD33 R69G
T5 sequence (P20138 18-259 R69G): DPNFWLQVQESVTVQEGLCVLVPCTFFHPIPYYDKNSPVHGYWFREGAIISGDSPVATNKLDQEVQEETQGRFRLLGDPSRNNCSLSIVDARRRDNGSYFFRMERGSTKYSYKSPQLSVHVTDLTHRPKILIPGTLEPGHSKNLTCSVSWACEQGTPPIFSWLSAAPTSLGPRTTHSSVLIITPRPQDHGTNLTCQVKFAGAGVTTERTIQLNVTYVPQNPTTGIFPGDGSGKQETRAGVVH
Method: Discovered scFvs were analyzed for binding to huCD33-R69-His or huCD33-G69-Fc recombinant proteins (for anti-CD33 scFvs; for CLL-1 scFvs, huCLL1-K244-Avi-Tev-His or huCLL1-Q244-Avi-Tev-His were used; for FLT3, huFLT3-T227-His or huFLT3-M227-Fc were used) using BLI on a ForteBio Octet HTX instrument. Streptavidin-coated biosensors were loaded with biotinylated anti-V5 tag monoclonal antibody for 5 min and were then quenched and blocked with 20 μM amine-PEG2-Biotin for 5 min. scFvs were captured on biosensors from scFv clone periplasmic extracts. huCD33 (or huCLL-1, or huFLT3) proteins were then associated with the captured scFvs for 2 minutes, followed by dissociation with buffer (1×HBST [10 mM HEPES pH 7.4, 150 mM NaCl, 0.05% Tween-20], 1 g/L BSA) for 5 minutes. […] Data was fitted with 1:1 Langmuir equation and off-rate values were reported.

T3 sequence (P20138 18-364): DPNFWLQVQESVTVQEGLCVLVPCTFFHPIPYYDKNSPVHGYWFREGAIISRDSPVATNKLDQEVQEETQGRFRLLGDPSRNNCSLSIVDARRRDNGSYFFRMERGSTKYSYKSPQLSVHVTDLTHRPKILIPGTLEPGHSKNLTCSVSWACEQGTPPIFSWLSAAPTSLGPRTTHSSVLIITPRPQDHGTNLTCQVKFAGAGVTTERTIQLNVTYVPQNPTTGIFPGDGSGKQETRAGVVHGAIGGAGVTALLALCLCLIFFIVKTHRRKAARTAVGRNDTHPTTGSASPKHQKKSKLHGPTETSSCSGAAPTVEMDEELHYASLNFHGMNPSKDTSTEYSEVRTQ
T4 sequence (P20138 18-364 R69G): as the sequence (P20138 18-364) above, with R52G counted along it

| Binder | binding result [1] | binding result [2] | FACS geometric mean fold change over Jurkat parental [3] [fold] | FACS geometric mean fold change over Jurkat parental [4] [fold] | binding result [5] |
| --- | --- | --- | --- | --- | --- |
| Polypeptide No. 200 (scFv, V domains shown, scFv) VH: QVQLVQSGAEVKKPGASVKVSCKASGYTFTDYYMHWVRQAPGQGLEWMGWMNPNSGNTGYAQKFQGRVTMTRDTSTSTVYMELSSLRSEDTAVYYCAADDTKSPYGMDVWGQGTMVTVSS VL: DIQMTQSPSSLSASVGDRVTITCQASQDISNYLNWYQQKPGKAPKLLIYEASSLQSGVPSRFSGSGSGTDFTLTISSLQPEDFATYYCQQTYSPPPTFGQGTKLEIKR | binds | no binding |  |  |  |
| Polypeptide No. 96 (scFv, V domains shown, scFv) VH: QVQLVQSGAEVKKPGASVKVSCKASGGTFSSYAISWVRQAPGQGLEWMGWMNPSSANTGYAQKFQGRVTMTRDTSTSTVYMELSSLRSEDTAVYYCAKDEMELLTAFDIWGQGTMVTVSS VL: DIQMTQSPSSLSASVGDRVTITCRASQSIGSWLAWYQQKPGKAPKLLIYGVSTLHSGVPSRFSGSGSGTDFTLTISSLQPEDFATYYCQQSYSTPPTFGQGTKLEIKR |  |  | > 30 | > 30 | binds |
| Polypeptide No. 105 (scFv, V domains shown, scFv) VH: EVQLLESGGGLVQPGGSLRLSCAASGFTFNNAWMTWVRQAPGKGLEWVAVISYDGSNKYYADSVKGRFTISRDNSKNTLYLQMNSLRAEDTAVYYCARMAVAGKGAFDIWGQGTMVTVSS VL: DIQMTQSPSSLSASVGDRVTITCRASQSIYSWLAWYQQKPGKAPKLLIYAASTLQSGVPSRFSGSGSGTDFTLTISSLQPEDFATYYCQQTYSTPVTFGQGTKVEIKR |  |  | 10 to 30 | 10 to 30 | binds |
| Polypeptide No. 98 (scFv, V domains shown, scFv) VH: QVQLVQSGAEVKKPGASVKVSCKASGGSFSSSAINWVRQAPGQGLEWMGWMNPNSGNTGYAQKFQGRVTMTRDTSTSTVYMELSSLRSEDTAVYYCARDRGIAVAGASPYYYYGMDVWGQGTTVTVSS VL: DIQMTQSPSSLSASVGDRVTITCRASQDIGSYLAWYQQKPGKAPKLLIYAASSLQSGVPSRFSGSGSGTDFTLTISSLQPEDFATYYCHQSYSTPFTFGQGTKLEIKR |  |  | 10 to 30 | > 30 | binds |
| Polypeptide No. 104 (scFv, V domains shown, scFv) VH: EVQLLESGGGLVQPGGSLRLSCAASGFTFSSSWMHWVRQAPGKGLEWVAVISYDGSEEYYADSVKGRFTISRDNSKNTLYLQMNSLRAEDTAVYYCARLTDYGDYVLGRYLSDWGQGTLVTVSS VL: DIQMTQSPSSLSASVGDRVTITCRASQGISSYLAWYQQKPGKAPKLLIYAASSLQSGVPSRFSGSGSGTDFTLTISSLQPEDFATYYCQQSYSIPPTFGQGTKLEIKR |  |  | > 30 | > 30 | binds |
| Polypeptide No. 102 (scFv, V domains shown, scFv) VH: EVQLLESGGGLVQPGGSLRLSCAASGFTFSNAWMSWVRQAPGKGLEWVSGIGGSGGTIYYADSVKGRFTISRDNSKNTLYLQMNSLRAEDTAVYYCAREVAAPLHPFGYYYYMDVWGKGTTVTVSS VL: not shown |  |  | 10 to 30 | 10 to 30 | binds |
| Polypeptide No. 92 (scFv, V domains shown, scFv) VH: QVQLVQSGAEVKKPGASVKVSCKASGYTFTNHYMHWVRQAPGQGLEWMGIINPSGGSTSYAQKFQGRVTMTRDTSTSTVYMELSSLRSEDTAVYYCASAEVGATHYGMDVWGQGTTVTVSS VL: DIVMTQSPLSLPVTPGEPASISCRSSQSLLHSNGYNYLDWYLQKPGQSPQLLIYAASSLQSGVPDRFSGSGSGTDFTLKISRVEAEDVGVYYCMQALHPPTFGQGTKVEIKR |  |  | 2 to 10 | 2 to 10 | binds |
| Polypeptide No. 99 (scFv, V domains shown, scFv) VH: QVQLVQSGAEVKKPGSSVKVSCKASGYTFSDYHIHWVRQAPGQGLEWMGWMNPNSGNTGYAQKFQGRVTITADESTSTAYMELSSLRSEDTAVYYCARTHSSGYYYWFDPWGQGTLVTVSS VL: DIQMTQSPSSLSASVGDRVTITCRASQGISNNLNWYQQKPGKAPKLLIYQASNKDTGVPSRFSGSGSGTDFTLTISSLQPEDFATYYCQQSYSSPPTFGQGTKVEIKR |  |  | > 30 | 10 to 30 | binds |
| Polypeptide No. 93 (scFv, V domains shown, scFv) VH: QVQLVQSGAEVKKPGASVKVSCKASGYSFTNYDISWVRQAPGQGLEWMGWVNPNSGNTGYAQKFQGRVTMTRDTSTSTVYMELSSLRSEDTAVYYCAKDAPYYYDSSGYYGVFDYWGQGTLVTVSS VL: DIVMTQSPLSLPVTPGEPASISCRSSQSLLHSNGYNYLDWYLQKPGQSPQLLIYAASSLQSGVPDRFSGSGSGTDFTLKISRVEAEDVGVYYCMQALQTPLTFGQGTRLEIKR |  |  | 2 to 10 | 2 to 10 | binds |
| Polypeptide No. 94 (scFv, V domains shown, scFv) VH: QVQLVQSGAEVKKPGASVKVSCKASGYTFTTYDINWVRQAPGQGLEWMGWISGYNGNTGYAQKFQGRVTMTRDTSTSTVYMELSSLRSEDTAVYYCAKDMGYGDYPDAFDIWGQGTMVTVSS VL: DIVMTQSPLSLPVTPGEPASISCRSSQSLLHSNGYNYLDWYLQKPGQSPQLLIYAASTLQSGVPDRFSGSGSGTDFTLKISRVEAEDVGVYYCMQALQIPITFGQGTKVEIKR |  |  | 2 to 10 | 10 to 30 | binds |
| Polypeptide No. 103 (scFv, V domains shown, scFv) VH: QVQLVQSGAEVKKPGASVKVSCKASGYTFTGYYMHWVRQAPGQGLEWMGWMNPDSGDTNYAQNFQGRVTMTRDTSTSTVYMELSSLRSEDTAVYYCATTRQPHYGMDVWGQGTTVTVSS VL: not shown |  |  | 10 to 30 | 10 to 30 | binds |
| Polypeptide No. 101 (scFv, V domains shown, scFv) VH: EVQLLESGGGLVQPGGSLRLSCAASGFTFSSYGVHWVRQAPGKGLEWVSAISGDGGDTYYADSVKGRFTISRDNSKNTLYLQMNSLRAEDTAVYYCARDTWDYSNYGGIDYWGQGTLVTVSS VL: DIQMTQSPSSLSASVGDRVTITCRASQNINTFLNWYQQKPGKAPKLLIYAASTLQSGVPSRFSGSGSGTDFTLTISSLQPEDFATYYCQQYDSFPLTFGGGTKVEIKR |  |  | > 30 | > 30 | binds |
| Polypeptide No. 97 (scFv, V domains shown, scFv) VH: EVQLLESGGGLVQPGGSLRLSCAASGFTFRSYWMTWVRQAPGKGLEWVSVISGSGDNTYYADSVKGRFTISRDNSKNTLYLQMNSLRAEDTAVYYCARETTWGMDVWGQGTTVTVSS VL: DIQMTQSPSSLSASVGDRVTITCRASQSISSYLNWYQQKPGKAPKLLIYDASNLETGVPSRFSGSGSGTDFTLTISSLQPEDFATYYCQQSSIIPLTFGGGTKVEIKR |  |  | 10 to 30 | 2 to 10 | binds |
| Polypeptide No. 95 (scFv, V domains shown, scFv) VH: QVQLVQSGAEVKKPGSSVKVSCKASGYSFTTYDINWVRQAPGQGLEWMGRMNPNSGNTGYAQKFQGRVTITADESTSTAYMELSSLRSEDTAVYYCARVVHGMDVWGQGTTVTVSS VL: not shown |  |  | 2 to 10 | 2 to 10 | binds |
